T1: fluorescently labeled H3 peptide carrying only K4me1 (Homo sapiens)
T1 chain: ARTKQTARKSTGGKAPRKQ

T2: fluorescently labeled H3 peptide with K4me1 and K9me2 (Homo sapiens)
T2 chain: ARTKQTARKSTGGKAPRKQ

T3: fluorescently labeled H3 peptide with K9me2 (Homo sapiens)
T3 chain: ARTKQTARKSTGGKAPRKQ

T4: fluorescently labeled H3 peptide without modification (Homo sapiens)
T4 chain: ARTKQTARKSTGGKAPRKQ

B1: GST-fused Tandem-Tudor domain (TTD) of human UHRF1, residues 126-280, wild type, Q96T88 126-280 (protein)
chain: MWDETELGLYKVNEYVDARDTNMGAWFEAQVVRVTRKAPSRDEPCSSTSRPALEEDVIYHVKYDDYPENGVVQMNSRDVRARARTIIKWQDLEVGQVVMLNYNPDNPKERGFWYDAEISRKRETRTARELYANVVLGDDSLNDCRIIFVDEVFKI
B2: GST-fused Tandem-Tudor domain (TTD) of human UHRF1, residues 126-280, wild type (domain or fragment)
chain: B1 chain

What was measured:
[1] = target: T1, fluorescently labeled H3 peptide …; experiment: FP; conditions: domain or fragment; chains chain; modification not given; K4me1 (monomethyl-lysine at 4); FITC-labeled
[2] = target: T2, fluorescently labeled H3 peptide with …; experiment: FP; conditions: domain or fragment; chains chain; modification not given; K4me1 (monomethyl-lysine at 4); K9me2 (dimethyl-lysine at 9); FITC-labeled
[3] = target: T3, fluorescently labeled H3 peptide with …; experiment: FP; conditions: domain or fragment; chains chain; modification not given; K9me2 (dimethyl-lysine at 9); FITC-labeled
[4] = target: T4, fluorescently labeled H3 peptide …; experiment: FP; conditions: domain or fragment; chains chain; modification not given; FITC-labeled
[5] = target: fluorescently labeled H3 peptide with K4me1 and K9me2; experiment: fluorescence polarisation; fluorescence anisotropy titration; 100 nM FITC-labeled peptide in the cuvette, protein added stepwise; 23°C; 100 mM KCl, 20 mM HEPES pH 7.5, 10% v/v glycerol

Binder | Kd [1] | Kd [2] | Kd [3] | Kd [4] | fold preference over the H3K9me2 peptide [5]
B1 | 3640 nM | 300 nM | 640 nM | > 9000 nM | 
B2 |  |  |  |  | > 2 fold

Source: paper PMC10464304, “Refined read‐out: The hUHRF1 Tandem‐Tudor domain prefers binding to histone H3 tails containing K4me1 in the context of H3K9me2/3” (Protein Science : A Publication of the Protein Society, 2023)
